Assay results as given in doi:10.1101/2022.06.07.494932.

Experiments:
[1] = biological target: α-Synuclein WT, unlabelled (human) (UniProt P37840); experiment: ELISA
[2] = biological target: α-Synuclein A53T, unlabelled (human) (UniProt P37840); experiment: ELISA

| intracellular α-Syn oligomer concentration after 1 day [1] [nM] | intracellular α-Syn oligomer concentration after 3 days [1] [nM] | intracellular α-Syn oligomer concentration after 3 days [2] [nM] | Substance |
| --- | --- | --- | --- |
| 12.3 | 13.1 | – | α-Synuclein WT, unlabelled (from UniProt P37840 1-140) (natural protein) |
| – | – | 16.3 | α-Synuclein A53T, unlabelled (from UniProt P37840 1-140) (natural protein) |
